From patent US20250333541A1, “ANTIBODY, AND DRUG CONJUGATE AND USE THEREOF” (EVOPOINT BIOSCIENCES CO., LTD., priority 2022, published 2025)
Where a chain is given by its changes, count along the chain named.

Columns and labels:
[1] = target: T1, tissue factor (TF) on the surface of TF-positive tumor cells (human, UniProt P13726 33-295); assay: cell-based or functional assay
[2] = target: T1, tissue factor (TF) on the surface of …; assay: cell-based or functional assay; remark: listed apart in the source
[3] = target: T1, tissue factor (TF) on the surface of …; assay: flow cytometry on KYSE520 cells
Protocol: (§1) A TF low/medium-expressing cell line NCI-H358 (source: Nanjing Cobioer, CBP60136) and a TF high-expressing cell line KYSE520 (source: Nanjing Cobioer, CBP60658) were digested with trypsin, collected by centrifugation, and washed three times with pre-cooled PBS. The cells were resuspended in 1% BSA and seeded into a 96-well sharp-bottom plate at 3×10⁵ cells/well. Each of the antibodies obtained by the gradient dilution was added, and the plate was incubated at 4° C. for 1 h. The cells were washed three times with pre-cooled PBS. 1 μL of anti-human fluorescent secondary antibody (APC anti-human IgG Fc Antibody, Biolegend, 410712) was added to each well, and the plate was incubated at 4° C. for 0.5 h. The cells were washed three times with pre-cooled PBS, resuspended, and detected by a flow cytometer (Sony, LE-SA3800GA). The data were imported into GraphPad software for curve fitting.

[4] = target: T1, tissue factor (TF) on the surface of …; assay: flow cytometry on NCI-H358 cells
Protocol: as §1

human TF-His [5] = target: T2, human TF-His (human, UniProt P13726 33-251); assay: ELISA, plate coated with h.TF-His
T2 construct: range 33-251; Recombinant extracellular segment expressed in HEK293-EBNA cells and purified on a nickel column; also called h.TF-His; h; TF-his; not shown: His tag from vector pTT5-His
Protocol: (§2) The ELISA plate was coated overnight with TF antigen (h.TF-His or c.TF-His antigen) in 50 mM carbonate coating buffer (CBS coating solution) at a coating concentration of 1 μg/mL in a volume of 100 μL at 4° C. The next day, the coating solution was removed, each well was washed once with 300 μL of PBS, and 100 μL of 2% BSA (Biotopped, A6020) in PBS was added to each well for blocking at 37° C. for 2 h. The test sample was subjected to a gradient dilution with 2% BSA in PBS to establish 11 concentration points. 100 μL of each of the samples obtained by the gradient dilution was added to the plate, and the plate was incubated at 37° C. for 2 h. The supernatant was removed, and each well was washed three times with 300 μL of PBST. 100 μL of HRP-conjugated secondary antibody in 2% BSA was added to each well, and the plate was incubated at 37° C. for 1 h. […] At the end of the incubation, the secondary antibody was removed, each well was washed five times with 300 μL of PBST, and 100 μL of TMB substrate (Huzhou InnoReagents Co., Ltd., TMB-S-004) was added to each well for color development for 5-20 min. 50 μL of 2 N HCl was added to each well to stop the reaction, and OD450 nm values were read using a microplate reader (manufacturer: MD, model: SpectraMax) and imported into GraphPad software for fitting and plotting to determine the binding of the samples to TF antigenic proteins.
The assay was performed as described in the general methods. Briefly, an ELISA plate coated with a human TF-his protein or a cynomolgus monkey TF-his protein was blocked with 2% BSA at 37° C. for 2 h, and each of the antibodies obtained by the gradient dilution (starting at 10 μg/mL, 3-fold graded dilution, 11 concentration points) was added. The plate was incubated at 37° C. for 2 h.

[6] = target: T1, tissue factor (TF) on the surface of …; assay: cell ELISA on fixed NCI-H358 cells
Protocol: TF antigen-positive cells (MDA-MB-231 or NCI-H358 cells) were seeded into a 96-well plate at 5×10⁴ cells/well one day prior to the experiment. On the day of the experiment, the culture supernatant was removed, each well was washed once with 300 μL of PBS, and 100 μL of 4% paraformaldehyde was added to each well for immobilization at room temperature for 20 min. The paraformaldehyde was removed, and each well was washed twice with 300 μL of PBS, and 100 μL of 2% BSA in PBS was added to each well for blocking at 37° C. for 2 h. After the blocking was completed, 30 μL of the test sample (hybridoma supernatant or purified antibody) was added to each well and the plate was incubated at 37° C. for 2 h. The liquid was removed, and each well was washed three times with 300 μL of PBST. 100 μL of HRP-conjugated secondary antibody in 2% BSA was added to each well, and the plate was incubated at 37° C. for 1 h. […] The secondary antibody was removed, each well was washed five times with 300 μL of PBST, and 100 μL of TMB substrate (Huzhou InnoReagents Co., Ltd., TMB-S-004) was added to each well for color development for 5-20 min. 50 μL of 2 N HCl was added to each well to stop the reaction, and OD450 nm values were read using a microplate reader (manufacturer: MD, model: SpectraMax) to determine the binding of the samples to TF-positive cells.
The assay was performed as described in the general methods. Briefly, TF antigen-positive NCI-H358 cells were digested with trypsin, collected, seeded into a 96-well plate at 5×10⁴ cells/well and incubated overnight, and then immobilized with 4% paraformaldehyde. After the paraformaldehyde was removed and the cells were washed with PBS, the plate was blocked with 2% BSA at 37° C. for 2 h. Each of the antibodies obtained by the gradient dilution (starting at 10 μg/mL, 3-fold graded dilution, 11 concentration points) was added. The plate was incubated at 37° C. for 2 h.

human TF-His [7] = target: T2, human TF-His; assay: antigenic protein-based ELISA, before conjugation (TF antigen species not stated)
Protocol: as §2

human TF-His [8] = target: T2, human TF-His; assay: antigenic protein-based ELISA on TF antigen (coating antigen not named, taken as human TF-His), antibody kept 14 days in human serum at 37 C
Protocol: as §2, with “proteins. […]” for “proteins.”

human TF-His [9] = target: T2, human TF-His; assay: antigenic protein-based ELISA on TF antigen (coating antigen not named, taken as human TF-His), antibody diluted in human serum, 0 days at 37 C
Protocol: as §2, with “proteins. […]” for “proteins.”

B1: 22F11H5-hz1 (antibody, human IgG1, kappa, V domains shown)
VH: QVQLVQSGAEVKQPGASVKVSCKASGYTFTTYWMHWVRQAPGQGLEWMGMIDPSDSYTTYAQKFQGRVTLTVDTSTSTAYMELSSLRSEDTAVYYCARGSGPGLFAYWGQGTLVTVSS
VL: DIQETQSPSSLSASVGDRVTITCRASQDIRNYLNWYQQKPGKAPKLLIYHTSRLQSGVPSRFSGSGSGTDYTLTISSLQPEDFATYYCQQGNMPPYTFGQGTKVEIKR
notes: Humanized IgG1 kappa
Endocytosis rate (%) on NCI-H358 cells, 2 h [1]: 34.3%
Endocytosis rate (%) on NCI-H358 cells, 4 h [1]: 56.1%
IC50 (ng/mL), inhibition of FVIIa-induced IL-8 release by MDA-MB-231 cells [2]: 180 ng/mL
Maximum inhibition rate (%), FVIIa-induced IL-8 release by MDA-MB-231 cells [2]: 94.3%
EC50 [3]: 0.0357 mg/L
EC50 [4]: 0.0671 mg/L
EC50 (human TF-His [5]): 0.00858 mg/L
EC50 [6]: 0.012 mg/L
EC50 (human TF-His [7]): 0.00515 mg/L
EC50 (read off the curve) (human TF-His [8]): ~0.03 mg/L
EC50 (read off the curve) (human TF-His [9]): ~0.03 mg/L

B2: 27H8H3-hz1 (antibody, human IgG1, kappa, V domains shown)
VH: B1 VH with Q13K, T59S, A97T
VL: B1 VL with D28G, R30S, Q55H, G66V, Y71F, Y87F, M93T, P94L
notes: Humanized IgG1 kappa
Endocytosis rate (%) on NCI-H358 cells, 2 h [1]: 49.2%
Endocytosis rate (%) on NCI-H358 cells, 4 h [1]: 73.4%
IC50 (ng/mL), inhibition of FVIIa-induced IL-8 release by MDA-MB-231 cells [2]: 463 ng/mL
Maximum inhibition rate (%), FVIIa-induced IL-8 release by MDA-MB-231 cells [2]: 100%
EC50 [3]: 0.0594 mg/L
EC50 [4]: 0.0991 mg/L
EC50 (human TF-His [5]): 0.00815 mg/L
EC50 [6]: 0.0348 mg/L
EC50 (human TF-His [7]): 0.00313 mg/L
EC50 (read off the curve) (human TF-His [8]): ~0.05 mg/L
EC50 (read off the curve) (human TF-His [9]): ~0.05 mg/L
